Test results reported in the supplement of paper PMC10567573.
± gives the standard deviation.

Experiment: protein stability index of a GFP-peptide fusion (GPS, HEK-293T) (PSI 1-6); higher = more stable
Conditions: c terminus: a fixed tail appended
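Note: 24-mer peptide tiles fused after GFP, lentivirally expressed, FACS-sorted into six equal bins by GFP/DsRed ratio, decoded by Illumina sequencing, PSI is the read-weighted mean bin number.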

Row | Sequence | protein stability index (treatment: DMSO) | protein stability index (treatment: MLN4924 1 uM, 8 h)
1 | AAARAAQRRRRVENAGGSPSPEPA [RSAD1] | 5.25 ± 0.087 | 5.12 ± 0.44
2 | AARSPQGLGASTAEISARTMQSMF [PTPRD] | 3.38 ± 0.26 | 3.29 ± 0.34
3 | AASISDGDCDAREEKQRELARKGS [FAM219A] | 5.54 ± 0.2 | 5.52 ± 0.2
4 | AATQALPQDSGTAAWKGRVLLPET [C22orf31] | 4.11 ± 0.062 | 4.1 ± 0.24
5 | AAVKAAREAFPSWSSRSPQERSRV [ALDH8A1] | 3.73 ± 0.23 | 3.88 ± 0.48
6 | ACALLLTSVDHDRAPVVGVRVNVL [DLC1] | 2.33 ± 0.32 | 2.68 ± 0.36
7 | ACRFQEDQEMARDLVERALYSMEC [TCF25] | 2.34 ± 0.57 | 2.49 ± 0.53
8 | ADWAVMDVVNYFRTVGFEEQASAF [SAMD13] | 2.21 ± 0.3 | 2.59 ± 0.19
9 | AECALVSLKEAEFYDKQLKVLLSG [ZFYVE21] | 2.86 ± 0.24 | 3.05 ± 0.48
10 | AEGDSWEEEGFGSSSPVKSPAAPY [WEE1] | 5.28 ± 0.13 | 5.19 ± 0.22
11 | AEGRTGFPWIDAIMTQLRQEGWIH [CRY1] | 2.35 ± 0.3 | 2.13 ± 0.33
12 | AEMAEDYPRYPDIHDLDLTLLNPR [CLCN6] | 4.05 ± 0.28 | 4.21 ± 0.25
13 | AESHASKDVAIDMMDSRTSQQLQL [STX5] | 4.98 ± 0.11 | 4.89 ± 0.18
14 | AFGKICHMVSDGSWVVRVQAAKLL [INTS4] | 2.74 ± 0.49 | 2.88 ± 0.58
15 | AGFDALQGDPKGEMAATPAGFAQL [HDAC6] | 4.37 ± 0.21 | 4.09 ± 0.36
16 | AGGRVFVLPCIQQIQRISLNTLTL [FLOT1] | 2.96 ± 0.57 | 2.93 ± 0.59
17 | AGLSLLSPSVMRLVHTQEPGEWLE [ALKBH7] | 2.71 ± 0.38 | 2.79 ± 0.24
18 | AHLGEEAHKCLECGKCFSQNTHLT [ZNF263] | 3.45 ± 0.34 | 3.55 ± 0.48
19 | AIFDAGTLGGELGALEALELSPPL [FOXJ1] | 3.26 ± 0.23 | 3.31 ± 0.31
20 | AIHGYTVWAHNLIAIARLRGSDLK [FBXO33] | 3.13 ± 0.8 | 2.46 ± 0.42
21 | AIPEAIGFVMVPFEYRGEQHKTCM [EDNRA] | 2.36 ± 0.32 | 2.31 ± 0.27
22 | AIYFTAYDQLKAFLCGRALTSDLY [SLC25A39] | 3.35 ± 0.83 | 3.37 ± 0.57
23 | ALAIKVNLCGHWYYSKACCRSCRP [ADAMTSL2] | 2.43 ± 0.38 | 2.77 ± 0.62

Row | Sequence | protein stability index (treatment: DMSO) | protein stability index (treatment: MLN4924 1 uM, 8 h)
24 | ALDERAKVLHEDKQTREQLHSISD [TRIM29] | 5.25 ± 0.27 | 5.31 ± 0.37
25 | ALKDNKSPLHLVQMPPVIVETARS [PI4K2A] | 3.8 ± 0.29 | 3.82 ± 0.29
26 | ALKEKEKASWSSLSMDEKVELYRI [COX4I1] | 3.65 ± 0.27 | 3.95 ± 0.23
27 | ALRAAEVWMDDFKSHVYMAWNIPM [GALNT9] | 2.35 ± 0.8 | 2.24 ± 0.71
28 | ALRERWLLEGTPSSASEGDEDLRR [PALM] | 5 ± 0.25 | 5.14 ± 0.21
29 | ALRGAAVDEYFRQPVVDTFDIRIL [CARM1] | 2.48 ± 0.45 | 2.6 ± 0.27
30 | ALRVQQLVAKELGQTGTRLTPADK [AUP1] | 4.04 ± 0.18 | 4.16 ± 0.14
31 | ALYVQAPTVTIEGFLQALSLAVDK [TRIP13] | 2.09 ± 0.46 | 2.2 ± 0.17
32 | AMEPEPAPAPAPEEWLDILGNGLL [FKBP8] | 4.47 ± 0.1 | 4.59 ± 0.41
33 | AMYIDTEGTFRPERLLAVAERYGL [RAD51] | 2.37 ± 0.19 | 2.39 ± 0.27
34 | ANETLAEMEEELRYAPLSFRNPMM [VTI1B] | 2.42 ± 0.63 | 3.01 ± 0.56
35 | ANLTPNVGGYFVDKFVATMYHYLQ [P3H4] | 2.38 ± 0.69 | 2.23 ± 0.32
36 | ANYTCVAMSTLGVIEAIAQITVKA [PTPRD] | 2.63 ± 0.16 | 3.29 ± 0.93
37 | APFPPPPAADGARAPRSPGQVTPR [C6orf223] | 5.14 ± 0.54 | 5.25 ± 0.11
38 | APRVRTAFTMEQVRTLEGVFQHHQ [VENTX] | 3.33 ± 0.22 | 3.26 ± 0.22
39 | APSCAIMISTYEFGKSFFQRLNQD [SLC25A39] | 2.47 ± 0.86 | 2.06 ± 0.33
40 | AQAIDFINRCSVLRQLGCKDGKNW [SPOPL] | 2.29 ± 0.24 | 2.58 ± 0.42
41 | AQGRAGAPVPEPPKEEQQQALEQF [EPB41L3] | 5.62 ± 0.27 | 5.34 ± 0.3
42 | AQHKDRSTQLEMQLEKPKPVKPVT [MNAT1] | 4.71 ± 0.24 | 4.82 ± 0.36
43 | AQLELYQLQVESNSSQLLLRRHAG [SCARA5] | 2.71 ± 0.26 | 2.9 ± 0.25
44 | AQMAKAAAEERALFTDRMATRSTT [WEE1] | 4.8 ± 0.21 | 4.87 ± 0.25
45 | AQRPGITHGVGLVLRVEQQPHLPL [SCNN1D] | 2.59 ± 0.17 | 2.85 ± 0.15
46 | AQYDSWPHYPEYFQQPAPEYHQPQ [LOXL2] | 3.62 ± 0.48 | 3.8 ± 0.49

Row | Sequence | protein stability index (treatment: DMSO) | protein stability index (treatment: MLN4924 1 uM, 8 h)
47 | ARGSIVATYIFIFIGETLLSMNWA [SPNS1] | 3.4 ± 0.55 | 2.88 ± 0.55
48 | ARIVEIYSRRLQVQERLTKQIAVA [GCH1] | 2.33 ± 0.37 | 2.37 ± 0.2
49 | ASLAAAKKQLADETLLKVDLENRC [LMNB1] | 4.35 ± 0.12 | 4.46 ± 0.24
50 | ASMSPDATKPSHWCSVAYWEHRTR [SMAD6] | 2.84 ± 0.24 | 2.87 ± 0.27
51 | ASPSSSVRLGSFRSPRAGAGALLR [PRPH] | 3.65 ± 0.26 | 3.81 ± 0.19
52 | ATNDDPWGPSGQLMGEIAKATFMY [CLINT1] | 2.34 ± 0.38 | 2.32 ± 0.27
53 | AVLGLLLVLAAVVAWCYYSVSLRK [MYORG] | 2.69 ± 0.52 | 2.77 ± 0.78
54 | AVPPTSSVPPVAGAPSVGQPGAGF [SNAP91] | 4.53 ± 0.23 | 4.42 ± 0.086
55 | AVVRLNKKIYEAKRFTDAGFEHYD [CDC14A] | 2.54 ± 0.38 | 2.52 ± 0.25
56 | AWFFSKTEELNKEVASNTEMIQTS [KRT15] | 3.83 ± 0.18 | 3.84 ± 0.081
57 | AWGFPENATAPRSPSHSPEHRRTA [ELOA2] | 5 ± 0.15 | 4.87 ± 0.16
58 | AWNIPMSNPGVDFGDVSERLALRQ [GALNT9] | 3.68 ± 0.27 | 3.91 ± 0.26
59 | CADVLFILQDQEHIFAHRIYLATS [RHOBTB1] | 2.93 ± 0.44 | 2.89 ± 0.48
60 | CCVKTELLGEETPMAADEGSAEKQ [EHMT1] | 5.45 ± 0.22 | 5.47 ± 0.12
61 | CDPGMTAFEPEALGNLVEGLDFHR [CAMK2A] | 4.17 ± 0.096 | 4.2 ± 0.19
62 | CELAQDKEAAEAIEAEGATAPLTE [CTNNB1] | 5.49 ± 0.41 | 5.53 ± 0.23
63 | CGDVHGQFHDLMELFRIGGKSPDT [PPP2CA] | 2.69 ± 0.34 | 2.84 ± 0.15
64 | CGWPRGKDAPCYESDTDIYETVAA [DRICH1] | 3.18 ± 0.23 | 3.31 ± 0.27
65 | CHLAHELRLSCMERKKVQIRSMDP [DCAF4] | 2.39 ± 0.25 | 2.42 ± 0.2
66 | CHLNGIVHRDLKPENLLLASKSKG [CAMK2D] | 3.52 ± 0.36 | 3.56 ± 0.19
67 | CICGFTHDDGYMICCDKCSVWQHI [KMT2E] | 3.19 ± 0.39 | 3.29 ± 0.41
68 | CIFDKFECVWNGSDSVIMTGSYNN [PPP2R2B] | 2.27 ± 0.34 | 2.21 ± 0.14
69 | CIVSPDRPGVQDAALIEAIQDRLS [VDR] | 3.55 ± 0.14 | 3.65 ± 0.25

Row | Sequence | protein stability index (treatment: DMSO) | protein stability index (treatment: MLN4924 1 uM, 8 h)
70 | CLESTKLLADLKKCGDLECEALIN [MIA2] | 3 ± 0.32 | 3.25 ± 0.14
71 | CLGLSYDGLLGDNQIMPKAGLLII [MAGEA3] | 3.12 ± 0.68 | 2.73 ± 0.61
72 | CPIIRIPNRFLRGHRPPPARSGHR [KLHDC10] | 2.68 ± 0.69 | 3.32 ± 0.85
73 | CPKYKFISCPTCRRETVLFTDYGL [RNF208] | 2.28 ± 0.25 | 2.25 ± 0.21
74 | CPLLLGSVMAIERCIGVTKPIFHS [PTGFR] | 2.78 ± 0.87 | 2.77 ± 0.68
75 | CQQEQLFQTRQEMTSMSAELKMRA [LRRC45] | 3.03 ± 0.42 | 3.1 ± 0.21
76 | CWNTSYCSIKCQQEHWHAEHKRTC [ZMYND11] | 2.31 ± 0.39 | 2.32 ± 0.22
77 | DALLGIDDLETMPDDLLTTLDDTC [ATF4] | 5.17 ± 0.16 | 5.05 ± 0.34
78 | DDGKLGATGPMGMRGFKGDRGPKG [SCARA5] | 5.02 ± 0.36 | 5.07 ± 0.13
79 | DDIEEKTPISNEVEMESEEQIAER [KMT2E] | 5.8 ± 0.16 | 5.66 ± 0.26
80 | DDWEDDYDYPEEEQLSGAGYRVSA [EID1] | 4.9 ± 0.29 | 5.04 ± 0.21
81 | DEAQGACLQQKQVVAEAQTRVSQL [LRRC45] | 5.23 ± 0.12 | 5.09 ± 0.31
82 | DEDSEPEREVRAKNGRVDSEDRRS [USP39] | 5.62 ± 0.33 | 5.517 ± 0.016
83 | DEGDEPMPIPEDLSTTSGGQQSSK [IKZF1] | 5.42 ± 0.65 | 5.56 ± 0.28
84 | DEGGITKQPPVTQSKTASDKSPST [FBF1] | 5.44 ± 0.21 | 5.56 ± 0.19
85 | DELVGLPFSSHTYSQASELPTDAV [FBXO34] | 4.95 ± 0.18 | 4.81 ± 0.081
86 | DGSVVRDFEHRPKAPVVECSITGD [WDR88] | 5.4 ± 0.21 | 5.32 ± 0.16
87 | DHLGWVARGTGSGEDSSTSSSTPL [RTN2] | 4.73 ± 0.18 | 4.54 ± 0.25
88 | DHTSEAVRNLFGLDPSSGAIHVLG [PCDHGC5] | 3.16 ± 0.24 | 3.09 ± 0.19
89 | DILWEHLEQMIKENQEKTEDQYEE [ETS2] | 5.02 ± 0.21 | 5.22 ± 0.2
